How the values were obtained:
Conditions in all cases: protein: recombinant; tags: N-terminal Twin-Strep-SUMO, removed with PreScission protease; chain copies: 4; label: 5' 32P
[1] = molecular target: T1, hnRNPC2 WT (UniProt P07910 1-306); experiment: EMSA; 0-10 uM protein, 10 pmol RNA; EMSA: 20 mM Tris-HCl pH 8.0, 0.25 M NaCl, 1 mM DTT, 10% glycerol, 0.2 mM EDTA; 37 C, 20 min; 5% polyacrylamide gel
[2] = molecular target: hnRNPC2 S115D (UniProt P07910 1-306, S115D); experiment: EMSA; 0-2000 nM protein, 10 pmol RNA; no difference from WT; EMSA: 20 mM Tris-HCl pH 8.0, 0.25 M NaCl, 1 mM DTT, 10% glycerol, 0.2 mM EDTA; 37 C, 20 min; 5% polyacrylamide gel
[3] = molecular target: T1, hnRNPC2 WT; experiment: EMSA; 0-2000 nM protein, 10 pmol RNA; higher affinity than intron RNAs; EMSA: 20 mM Tris-HCl pH 8.0, 0.25 M NaCl, 1 mM DTT, 10% glycerol, 0.2 mM EDTA; 37 C, 20 min; 5% polyacrylamide gel

T1 sequence (P07910 whole entry): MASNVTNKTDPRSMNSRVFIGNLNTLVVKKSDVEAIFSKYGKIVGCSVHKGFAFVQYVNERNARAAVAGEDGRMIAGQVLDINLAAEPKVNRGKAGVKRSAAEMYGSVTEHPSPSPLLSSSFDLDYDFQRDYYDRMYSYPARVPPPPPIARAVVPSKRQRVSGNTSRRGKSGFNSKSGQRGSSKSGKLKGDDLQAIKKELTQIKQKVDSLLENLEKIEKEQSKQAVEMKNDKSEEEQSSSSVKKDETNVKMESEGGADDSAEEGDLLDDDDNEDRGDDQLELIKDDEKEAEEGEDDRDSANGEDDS
Sequence of hnRNPC2 S115D (P07910 whole entry S115D): as the sequence (P07910 whole entry) above, with S115D counted along it

Row | Binder | binding result [1] | binding result [2] | binding result [3]
1 | ACCCCCUGCACACUUACCCAAUCCUUUUAG (ssRNA) [RPL10 intron 6 3' splice site RNA] | binds | – | –
2 | AUCUCUUGGCUAUCCCUCUUGCUUCUCCAG (ssRNA) [eIF5A intron 5 3' splice site RNA] | binds | – | –
3 | UUUUUUUUUUUUUUUUUUUUUUUUUUUUUUUUUUUUUUUUUUUUU (ssRNA) [poly-U 45 nt] | – | binds | binds
